Experimental data: patent US20210238260A1 (published 2021)

Legend:
Factor X (FX) = Factor X (FX) (UniProt P00742 41-488); test: cell-based or functional assay
[1] = target: T1, plasma purified human antithrombin III (AT-III), in complex with unfractionated heparin (UFH) (human, UniProt P01008 33-464); test: K0.5: AT-III concentration (with excess UFH) for 50% inhibition of FIXa activity on Mesyl-D-CHG-Gly-Arg-AMC, 10 s incubation
T1 construct: also called AT-III/UFH

[2] = target: T2, plasma purified human antithrombin III (AT-III), in complex with unfractionated heparin (human, UniProt P01008 33-464); test: AT-III/UFH inhibition of FIXa; K0.5 = AT-III conc. for 50% inhibition of residual activity on Mesyl-D-CHG-Gly-Arg-AMC
T2 construct: also called AT-III/UFH

[3] = target: T3, plasma purified human AT-III (antithrombin III) (human, UniProt P01008 33-464); test: K0.5: AT-III conc. for 50% inhibition of FIXa amidolytic activity, AT-III/UFH titrated, 10 s incubation
T3 construct: also called AT-III/UFH complex

B1: FIXa-R318Y/R338E/T343R (enzyme)
chain 1: YNSGKLEEFVQGNLERECMEEKCSFEEAREVFENTERTTEFWKQYVDGDQCESNPCLNGGSCKDDINSYECWCPFGFEGKNCELDVTCNIKNGRCEQFCKNSADNKVVCSCTEGYRLAENQKSCEPAVPFPCGRVSVSQTSKLTR
chain 2: VVGGEDAKPGQFPWQVVLNGKVDAFCGGSIVNEKWIVTAAHCVETGVKITVVAGEHNIEETEHTEQKRNVIRIIPHHNYNAAINKYNHDIALLELDEPLVLNSYVTPICIADKEYTNIFLKFGSGYVSGWGRVFHKGYSALVLQYLRVPLVDRATCLESTKFRIYNNMFCAGFHEGGRDSCQGDSGGPHVTEVEGTSFLTGIISWGEECAMKGKYGIYTKVSRYVNWIKEKTKLT
Factor X (FX)
  Factor X activation, fold over wild-type or BeneFIX FIX: ~2.5 fold

B2: FIXa-Y155F/K247N/N249S/N260S (enzyme)
chain 1: YNSGKLEEFVQGNLERECMEEKCSFEEAREVFENTERTTEFWKQYVDGDQCESNPCLNGGSCKDDINSYECWCPFGFEGKNCELDVTCNIKNGRCEQFCKNSADNKVVCSCTEGYRLAENQKSCEPAVPFPCGRVSVSQTSKLTR
chain 2: VVGGEDAKPGQFPWQVVLNGKVDAFCGGSIVNEKWIVTAAHCVETGVKITVVAGEHNIEETEHTEQNRSVIRIIPHHNYSAAINKYNHDIALLELDEPLVLNSYVTPICIADKEYTNIFLKFGSGYVSGWGRVFHKGRSALVLQYLRVPLVDRATCLRSTKFTIYNNMFCAGFHEGGRDSCQGDSGGPHVTEVEGTSFLTGIISWGEECAMKGKYGIYTKVSRYVNWIKEKTKLT
[1]
  IC50: 0.152 µM

B3: FIXa-K247N/N249S/N260S/R318Y/R338E/R403E/E410N (enzyme)
chain 1: YNSGKLEEFVQGNLERECMEEKCSFEEAREVFENTERTTEFWKQYVDGDQCESNPCLNGGSCKDDINSYECWCPFGFEGKNCELDVTCNIKNGRCEQFCKNSADNKVVCSCTEGYRLAENQKSCEPAVPFPCGRVSVSQTSKLTR
chain 2: VVGGEDAKPGQFPWQVVLNGKVDAFCGGSIVNEKWIVTAAHCVETGVKITVVAGEHNIEETEHTEQNRSVIRIIPHHNYSAAINKYNHDIALLELDEPLVLNSYVTPICIADKEYTNIFLKFGSGYVSGWGRVFHKGYSALVLQYLRVPLVDRATCLESTKFTIYNNMFCAGFHEGGRDSCQGDSGGPHVTEVEGTSFLTGIISWGEECAMKGKYGIYTKVSEYVNWIKNKTKLT
notes: also called K82N/N84S/N95S/R150Y/R170E/R233E/E240N (chymotrypsin numbering)
[1]
  IC50: 5.56 µM

B4: FIXa A103N/N105S/R318Y/R338E/R403E/E410N (enzyme)
light: YNSGKLEEFVQGNLERECMEEKCSFEEAREVFENTERTTEFWKQYVDGDQCESNPCLNGGSCKDDINSYECWCPFGFEGKNCELDVTCNIKNGRCEQFCKNSNDSKVVCSCTEGYRLAENQKSCEPAVPFPCGRVSVSQTSKLTR
heavy: VVGGEDAKPGQFPWQVVLNGKVDAFCGGSIVNEKWIVTAAHCVETGVKITVVAGEHNIEETEHTEQKRNVIRIIPHHNYNAAINKYNHDIALLELDEPLVLNSYVTPICIADKEYTNIFLKFGSGYVSGWGRVFHKGYSALVLQYLRVPLVDRATCLESTKFTIYNNMFCAGFHEGGRDSCQGDSGGPHVTEVEGTSFLTGIISWGEECAMKGKYGIYTKVSEYVNWIKNKTKLT
[2]
  IC50: 9.19 µM

B5: FIXa-D203N/F205T/R318Y/E410N (enzyme)
chain 1: YNSGKLEEFVQGNLERECMEEKCSFEEAREVFENTERTTEFWKQYVDGDQCESNPCLNGGSCKDDINSYECWCPFGFEGKNCELDVTCNIKNGRCEQFCKNSADNKVVCSCTEGYRLAENQKSCEPAVPFPCGRVSVSQTSKLTR
chain 2: VVGGEDAKPGQFPWQVVLNGKVNATCGGSIVNEKWIVTAAHCVETGVKITVVAGEHNIEETEHTEQKRNVIRIIPHHNYNAAINKYNHDIALLELDEPLVLNSYVTPICIADKEYTNIFLKFGSGYVSGWGRVFHKGYSALVLQYLRVPLVDRATCLRSTKFTIYNNMFCAGFHEGGRDSCQGDSGGPHVTEVEGTSFLTGIISWGEECAMKGKYGIYTKVSRYVNWIKNKTKLT
notes: also called D39N/F41T/R150Y/E240N
[3]
  IC50: 1.28 µM

B6: FIXa D203N/F205T/R318Y/E410N (enzyme)
light: YNSGKLEEFVQGNLERECMEEKCSFEEAREVFENTERTTEFWKQYVDGDQCESNPCLNGGSCKDDINSYECWCPFGFEGKNCELDVTCNIKNGRCEQFCKNSADNKVVCSCTEGYRLAENQKSCEPAVPFPCGRVSVSQTSKLTR
heavy: VVGGEDAKPGQFPWQVVLNGKVNATCGGSIVNEKWIVTAAHCVETGVKITVVAGEHNIEETEHTEQKRNVIRIIPHHNYNAAINKYNHDIALLELDEPLVLNSYVTPICIADKEYTNIFLKFGSGYVSGWGRVFHKGYSALVLQYLRVPLVDRATCLRSTKFTIYNNMFCAGFHEGGRDSCQGDSGGPHVTEVEGTSFLTGIISWGEECAMKGKYGIYTKVSRYVNWIKNKTKLT
notes: as for B5
[2]
  IC50: 1.28 µM

B7: FIXa-A103N/N105S/R318Y/R338E/R403E/E410N (enzyme)
chain 1: YNSGKLEEFVQGNLERECMEEKCSFEEAREVFENTERTTEFWKQYVDGDQCESNPCLNGGSCKDDINSYECWCPFGFEGKNCELDVTCNIKNGRCEQFCKNSNDSKVVCSCTEGYRLAENQKSCEPAVPFPCGRVSVSQTSKLTR
chain 2: VVGGEDAKPGQFPWQVVLNGKVDAFCGGSIVNEKWIVTAAHCVETGVKITVVAGEHNIEETEHTEQKRNVIRIIPHHNYNAAINKYNHDIALLELDEPLVLNSYVTPICIADKEYTNIFLKFGSGYVSGWGRVFHKGYSALVLQYLRVPLVDRATCLESTKFTIYNNMFCAGFHEGGRDSCQGDSGGPHVTEVEGTSFLTGIISWGEECAMKGKYGIYTKVSEYVNWIKNKTKLT
[3]
  IC50: 9.19 µM
